Paper PMC11805909, “Structural basis of inhibition of human NaV1.8 by the tarantula venom peptide Protoxin-I” (Nature Communications, 2025)

Target: T1, human NaV1.8 α-subunit (human, UniProt Q9Y5Y9 1-1956, M1713V, N-linked glycosylation modelled at Asn 312, 819, 1312, 1328 and 1336; further sites N284 and N288)
T1 construct: a TEV protease site stands between the N-terminal tags and the channel; No TEV cleavage is described in the purification, so the N-terminal tags were probably still on the protein on the grids; VSDI was not resolved in the maps; also called hNaV1.8; apo-hNaV1.8; source: HEK293 (FreeStyle 293-F), transiently co-transfected with β4; not shown: FLAG, N-terminal, kept
Assay: cryo-EM structure; 45 µM ProTx-I incubated 30 min on ice with purified hNaV1.8 in GDN micelles (150 mM NaCl, 25 mM HEPES pH 7.5, 0.006% GDN); excess peptide removed on a 100 kDa MWCO filter; monolayer graphene grids
Details: both partners purified

B1: Protoxin-I (peptide)
peptide: ECRYWLGGCSAGQTCCKHLVCSRRHGWCVWDGTFS
notes: modelled from the NMR ensemble PDB 2M9L; printed residue numbers (R3, W5, L6, S22, R23, W27, V29, W30, D31, G32, F34) count on the peptide; Disulfide-rich (ICK framework); also called ProTx-I; source: bought: Smartox Biotechnology
  binding result: binds
